Article PMC9166766 (2022)
No end group written: not given here. *: point of attachment. Biotin = O=C1N[C@H]2[C@H](CS[C@H]2CCCCC(=O)*)N1

Target: His6-tagged CNA (isoform not told) (UniProt P16298 1-524)
Experiment: SPR

For Biotin-AAAMAGFPPEITVTPPTP [biotin-labeled CABIN1-L-1 peptide], which Kd is on record?
The Kd was 512 nM.
